Blank lines part the entries; values can stand above or below the molecule they belong to. No end group written: not given here. *: point of attachment. PSMA‑b‑PS = poly(styrene-alt-maleic anhydride)-b-poly(styrene) polymer; Alloc = C=CCOC(=O)*
Columns and labels:
S100a4 = settings: Sack et al. 2011; cited from earlier work
TRAP [1] = biological target: T1, TRAP (Homo sapiens, UniProt P13686); experiment: In vitro binding assay of TBP-NPs and SCP-NPs to TRAP (fluorescamine readout); settings: NPs exposed to TRAP in serial dilutions, incubation 2 hours; read-out: Binding Affinity (Kd)
T1 sequence (P13686 22-325): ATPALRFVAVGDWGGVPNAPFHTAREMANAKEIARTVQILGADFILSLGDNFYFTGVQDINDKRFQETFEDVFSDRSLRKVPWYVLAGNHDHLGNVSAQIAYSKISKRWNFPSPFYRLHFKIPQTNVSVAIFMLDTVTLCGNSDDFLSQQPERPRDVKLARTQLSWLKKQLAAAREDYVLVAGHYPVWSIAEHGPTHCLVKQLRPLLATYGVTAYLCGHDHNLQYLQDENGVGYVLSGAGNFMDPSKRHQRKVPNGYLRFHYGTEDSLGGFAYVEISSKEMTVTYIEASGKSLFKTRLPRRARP
From the text: (§1) Polymer-peptide conjugates were self-assembled into nanoparticles via solvent exchange from dimethylformamide (DMF) to water using a syringe pump. Dynamic light scattering (DLS) was used to characterize the size and zeta potential of TBP-NPs and SCP-NPs. An in vitro binding assay that involved exposure of TBP-NPs and SCP-NPs to TRAP in serial dilutions was used to determine the binding affinity of TBP-NPs and establish their efficacy for in vivo applications. Specifically, after exposure of TBP-NPs to TRAP and incubation for 2 hours, fluorescamine, a spiro compound that reacts with primary amines to form highly fluorescent compounds, was added to the reaction. The protein-dye complex was excited with UV LED (365 nm) and emitted at 470 nm on a Cytation 5 Imaging Multimode Reader. The binding affinity (Kd) and maximum binding (Bmax) were then calculated to determine the efficacy of the synthesized TBP-NPs (FIG. 1 C-D).

[2] = Dynamic light scattering characterization of nanoparticle size; assay type: physicochemical; settings: nanoparticles, DLS
From the text: as §1

TRAP [3] = biological target: T1, TRAP; settings: known from the art; cited from earlier work
[4] = biological target: tartrate resistant acid phosphatase (TRAP); experiment: in vitro binding assay, NPs exposed to TRAP in serial dilutions, 2 h incubation, fluorescamine fluorescence readout

- Kd (TRAP [1]): 468 µM
Molecule: CDI-TBP-Alloc: TBP-NPs made by carbodiimide coupling of Alloc-protected-lysine TBP to pre-formed PSMA-b-PS nanoparticles (TPLSYLK(Alloc)GLVTVG-OH; also: coupled to PSMA-b-PS nanoparticle by amide bond (carbodiimide), site not given here)
- Diameter (nm) [2]: 33 ± 3 nm
- Dispersity for Size [2]: 0.2 ± 0.1

- Kd [4]: 468 µM
B1: TBP-NPs prepared by carbodiimide tagging of pre-formed PSMA-b-PS nanoparticles with Alloc-protected-lysine TBP (peptide)
peptide: TPLSYLK(Alloc)GLVTVG
modifications: not fully specified; printed as TPLSYLKAllocGLVTVG; also: ['coupled to PSMA-b-PS nanoparticles by carbodiimide amide bond']

The next lines start with the molecule.

Molecule: O=C(Nc1ccc([N+](=O)[O-])cc1Cl)c1cc(Cl)ccc1O [Niclosamide]
- effect on S100a4 gene and protein expression (S100a4): inhibit the S100a4 gene and protein expression

Molecule: ARO-TBP-Alloc: TBP-NPs from anhydride ring-opening conjugation of Alloc-protected-lysine TBP to PSMA-b-PS polymer, then self-assembly (TPLSYLKGLVTVG-OH; not fully specified (residue 7, N-terminus); printed as TPLSYLKAllocGLVTVG; also: ['conjugated to PSMA-b-PS polymer by anhydride ring-opening'])
- Kd (TRAP [1]): 186 µM
- Diameter (nm) [2]: 32 ± 2 nm
- Dispersity for Size [2]: 0.1 ± 0.1

Molecule: CDI-TBP: TBP-NPs made by carbodiimide coupling of free (unprotected) TBP to PSMA-b-PS nanoparticles (TPLSYLKGLVTVG; not fully specified; also: ['coupled to PSMA-b-PS nanoparticles by carbodiimide amide bond'])
- Diameter (nm) [2]: 66 ± 3 nm
- Dispersity for Size [2]: 0.4 ± 0.1

Molecule: TPLSYLKGLVTVG [TBP, TPLSYLKGLVTVG (SEQ ID NO: 1), peptide known to home to TRAP]
- affinity for TRAP (TRAP [3]): sub-nanomolar affinity

B2: TRAP binding peptide nanoparticles (TBP-NPs) prepared by anhydride ring-opening conjugation of Alloc-protected TBP to PSMA-b-PS polymer (peptide)
peptide: {PSMA‑b‑PS}-TPLSYLKGLVTVG-OH
modifications: not fully specified (residue 7); printed as TPLSYLKAllocGLVTVG; also: Lys7 Alloc-protected during conjugation, removal not given here
- Kd [4]: 186 µM
